# Biological target: T1, TPP-2614, TweakR-ECD-34-68-hIgGFc-His-D47A (human)
# T1 construct: alanine-scan mutein; used as HEK293 supernatant
# Experiment: ELISA, IgG coated at 1 µg/ml, 8-fold diluted HEK293 supernatant with the TWEAKR(34-68)-Fc mutein, anti-HIS-HRP, Amplex Red
# Experimental: These TWEAKR(34-68) Fc muteins were expressed in HEK293 cells. To obtain dose-reaction data, IgGs were coated at a concentration of 1 μg/ml onto a 384-well Maxisorp ELISA plate, and a serial 2-fold dilution of the supernatant comprising the TWEAKR mutein was used as soluble binding partner. Detection was carried out using anti-HIS-HRP and Amplex Red.
binder,measurement,value
"TPP-2090 (antibody, human IgG1, kappa, V domains shown, human IgG1, anti-TWEAKR; biotinylated where used as soluble partner in the ELISAs) VH: EVQLLESGGGLVQPGGSLRLSCAASGFTFSPYPMIWVRQAPGKGLEWVSYISPSGGSTHYADSVKGRFTISRDNSKNTLYLQMNSLRAEDTAVYYCARGGDTYFDYFDYWGQGTLVTVSS VL: DIQMTQSPSSLSASVGDRVTITCRASQSISGYLNWYQQKPGKAPKLLIYQASSLQSGVPSRFSGSGSGTDFTLTISSLQPEDFATYYCQQSYTSPFITFGQGTKVEIKR",binding result,no binding (tested: 8-fold diluted supernatant)
